Here are results for 5 substances from the supplement of paper PMC5998384.

The test system of series [1] is HeLa Kyoto. The series can be described thus: solubility in G1/S (NP-40 vs SDS abundance) (log2 ratio); higher = more soluble. The settings on record: cell cycle stage: G1/S.
Series [2] concerns HeLa Kyoto. The series can be described thus: melting temperature (median over replicates), in situ; higher = more thermally stable.
In series [3] the test system is HeLa Kyoto. Kind of series: solubility change mitosis vs G1/S (difference of NP-40 vs SDS log2 ratios) (log2 ratio difference); higher = more soluble in mitosis.
In series [4] the test system is HeLa Kyoto. Kind of series: thermal stability score vs G1/S (z-score of summed log2 fold changes over temperatures); higher = more thermally stable than in G1/S.
Where [5] appears, read: cell cycle stage: early G1 (4.5 h after nocodazole release).
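Wherever melting temperature (median over replicates), in situ is given: HeLa Kyoto cells synchronized by double thymidine or nocodazole block, proteins quantified by TMT10plex mass spectrometry, three independent biological replicates.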
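Wherever solubility change mitosis vs G1/S (difference of NP-40 vs SDS log2 ratios) is given: synchronized HeLa Kyoto cells (double thymidine block for G1/S, nocodazole release for mitosis), protein amounts in NP-40 versus SDS lysates quantified by mass spectrometry, three biological replicates.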
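Wherever solubility in G1/S (NP-40 vs SDS abundance) is given: HeLa Kyoto cells arrested at G1/S by double thymidine block, proteins quantified by TMT10plex mass spectrometry in mild NP-40 versus SDS extracts, three biological replicates.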
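Wherever thermal stability score vs G1/S (z-score of summed log2 fold changes over temperatures) is given: synchronized HeLa Kyoto cells, proteins quantified by TMT10plex mass spectrometry, three biological replicates, mitosis taken 0.5 h after nocodazole release, G1/S directly after double thymidine block.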

On to “MSHPSWLPPKSTGEPLGHVPARMETTHSFGNPSISVSTQQPPKKFAPVVAPKPKYNPYKQPGGEGDFLPPPPPPLDDSSALPSISGNFPPPPPLDEEAFKVQGNPGGKTLEERRSSLDAEIDSLTSILADLECSSPYKPRPPQSSTGSTASPPVSTPVTGHKRMVIPNQPPLTATKKSTLKPQPAPQAGPIPVAPIGTLKPQPQPVPASYTTASTSSRPTFNVQVKSAQPSPHYMAAPSSGQIYGSGPQGYNTQPVPVSGQCPPPSTRGGMDYAYIPPPGLQPEPGYGYAPNQGRYYEGYYAAGPGYGGRNDSDPTYGQQGHPNTWKREPGYTPPGAGNQNPPGMYPVTGPKKTYITDPVSAPCAPPLQPKGGHSGQLGPSSVAPSFRPEDELEHLTKKMLYDMENPPADEYFGRCARCGENVVGEGTGCTAMDQVFHVDCFTCIICNNKLRGQPFYAVEKKAYCEPCYINTLEQCNVCSKPIMERILRATGKAYHPHCFTCVMCHRSLDGIPFTVDAGGLIHCIEDFHKKFAPRCSVCKEPIMPAPGQEETVRIVALDRDFHVHCYRCEDCGGLLSEGDNQGCYPLDGHILCKTCNSARIRVLTAKASTDL”, for which the “solubility in G1/S (log2)” value with HeLa Kyoto [1] was 0.203. In addition, the results for the melting temperature with HeLa Kyoto [2] (cell cycle stage: G1/S) and with HeLa Kyoto [2] (cell cycle stage: mitosis) were 55.6 °C and 54.4 °C, respectively. The “solubility change mitosis (log2)” value in the series on HeLa Kyoto [3] is -0.115. For the same substance, the thermal stability score was -2.33 in the series on HeLa Kyoto [4] (setting [5]) and -1.52 with HeLa Kyoto [4] (cell cycle stage: mitosis).
On to EHBP1L1, for which the “solubility in G1/S (log2)” value with HeLa Kyoto [1] is -0.0555. Also, the melting temperature in the series with HeLa Kyoto [2] (cell cycle stage: G1/S) is 49.7 °C; with HeLa Kyoto [2] (cell cycle stage: mitosis), 49.1 °C. Also, the “solubility change mitosis (log2)” value with HeLa Kyoto [3] was -0.0696. For the same substance, the thermal stability score with HeLa Kyoto [4] (setting [5]) is -1.13; in the series with HeLa Kyoto [4] (cell cycle stage: mitosis), 2.05.
Turning to “MRSLGANMAAALRAAGVLLRDPLASSSWRVCQPWRWKSGAAAAAVTTETAQHAQGAKPQVQPQKRKPKTGILMLNMGGPETLGDVHDFLLRLFLDRDLMTLPIQNKLAPFIAKRRTPKIQEQYRRIGGGSPIKIWTSKQGEGMVKLLDELSPNTAPHKYYIGFRYVHPLTEEAIEEMERDGLERAIAFTQYPQYSCSTTGSSLNAIYRYYNQVGRKPTMKWSTIDRWPTHHLLIQCFADHILKELDHFPLEKRSEVVILFSAHSLPMSVVNRGDPYPQEVSATVQKVMERLEYCNPYRLVWQSKVGPMPWLGPQTDESIKGLCERGRKNILLVPIAFTSDHIETLYELDIEYSQVLAKECGVENIRRAESLNGNPLFSKALADLVHSHIQSNELCSKQLTLSCPLCVNPVCRETKSFFTSQQL [FECH]”, the “solubility in G1/S (log2)” value in the series with HeLa Kyoto [1] was determined as 0.25. Moreover, the melting temperature in the series on HeLa Kyoto [2] (cell cycle stage: G1/S) is 51.9 °C; in the series with HeLa Kyoto [2] (cell cycle stage: mitosis), 53.4 °C. Further, the “solubility change mitosis (log2)” value in the series with HeLa Kyoto [3] is -0.0764. For the same substance, the figures for the thermal stability score in the series on HeLa Kyoto [4] (setting [5]) and in the series with HeLa Kyoto [4] (cell cycle stage: mitosis) were -0.37 and -0.327, respectively.
Turning to “MLSVRVAAAVVRALPRRAGLVSRNALGSSFIAARNFHASNTHLQKTGTAEMSSILEERILGADTSVDLEETGRVLSIGDGIARVHGLRNVQAEEMVEFSSGLKGMSLNLEPDNVGVVVFGNDKLIKEGDIVKRTGAIVDVPVGEELLGRVVDALGNAIDGKGPIGSKTRRRVGLKAPGIIPRISVREPMQTGIKAVDSLVPIGRGQRELIIGDRQTGKTSIAIDTIINQKRFNDGSDEKKKLYCIYVAIGQKRSTVAQLVKRLTDADAMKYTIVVSATASDAAPLQYLAPYSGCSMGEYFRDNGKHALIIYDDLSKQAVAYRQMSLLLRRPPGREAYPGDVFYLHSRLLERAAKMNDAFGGGSLTALPVIETQAGDVSAYIPTNVISITDGQIFLETELFYKGIRPAINVGLSVSRVGSAAQTRAMKQVAGTMKLELAQYREVAAFAQFGSDLDAATQQLLSRGVRLTELLKQGQYSPMAIEEQVAVIYAGVRGYLDKLEPSKITKFENAFLSHVVSQHQALLGTIRADGKISEQSDAKLKEIVTNFLAGFEA [ATP5A1]”, the “solubility in G1/S (log2)” value in the series on HeLa Kyoto [1] is 0.231. Also, the melting temperature in the series with HeLa Kyoto [2] (cell cycle stage: G1/S) was 59.9 °C; in the series with HeLa Kyoto [2] (cell cycle stage: mitosis) it was 58.9 °C. Also, in the series on HeLa Kyoto [3], the “solubility change mitosis (log2)” value was -0.0479. Also, the values for the thermal stability score in the series on HeLa Kyoto [4] (setting [5]) and with HeLa Kyoto [4] (cell cycle stage: mitosis) were -1.58 and -1.35, respectively.
As for “METILEQQRRYHEEKERLMDVMAKEMLTKKSTLRDQINSDHRTRAMQDRYMEVSGNLRDLYDDKDGLRKEELNAISGPNEFAEFYNRLKQIKEFHRKHPNEICVPMSVEFEELLKARENPSEEAQNLVEFTDEEGYGRYLDLHDCYLKYINLKASEKLDYITYLSIFDQLFDIPKERKNAEYKRYLEMLLEYLQDYTDRVKPLQDQNELFGKIQAEFEKKWENGTFPGWPKETSSALTHAGAHLDLSAFSSWEELASLGLDRLKSALLALGLKCGGTLEERAQRLFSTKGKSLESLDTSLFAKNPKSKGTKRDTERNKDIAFLEAQIYEYVEILGEQRHLTHENVQRKQARTGEEREEEEEEQISESESEDEENEIIYNPKNLPLGWDGKPIPYWLYKLHGLNINYNCEICGNYTYRGPKAFQRHFAEWRHAHGMRCLGIPNTAHFANVTQIEDAVSLWAKLKLQKASERWQPDTEEEYEDSSGNVVNKKTYEDLKRQGLL [SF3A3]”, the “solubility in G1/S (log2)” value in the series on HeLa Kyoto [1] came to 0.132. Moreover, the melting temperature in the series on HeLa Kyoto [2] (cell cycle stage: G1/S) is 49.8 °C; in the series with HeLa Kyoto [2] (cell cycle stage: mitosis), 48.1 °C. In the series with HeLa Kyoto [3], the “solubility change mitosis (log2)” value is 0.129. Besides, the results for the thermal stability score in the series on HeLa Kyoto [4] (setting [5]) and in the series with HeLa Kyoto [4] (cell cycle stage: mitosis) were 0.0461 and 0.769, respectively.
